Data reported in US20230227568A1 (Pieris, published 2023).

Legend:
human 4-1BB on cells = target: T1, human 4-1BB on cells (human, UniProt Q07011 24-255); assay: flow cytometry, Flp-In-CHO::hu4-1BB cells
T1 construct: whole, on cells; Stably transfected CHO cells (flow cytometry) and bought Jurkat reporter cells (bioassay); also called Flp-In-CHO::hu4-1BB; human 4-1BB-expressing CHO cells
Experimental: 5×10⁴ cells per well were incubated for 1 h in ice-cold PBS containing 5% fetal calf serum (PBS-FCS). A dilution series of the tested multimeric proteins (SEQ ID NOs: 38-44 and 46-55), the 4-1BB-targeting lipocalin mutein as included in the multimeric proteins (SEQ ID NO: 64) or the GPC3-targeting lipocalin SEQ ID NO: 90 were added to the cells and incubated for 1 h on ice. Cells were washed twice with PBS and then incubated with a rabbit anti-NGAL or a goat anti-human IgG labeled with fluorescent dye Alexa 488 for 30 min on ice. Human IgG4 isotype (SEQ ID NOs: 29 and 30) and lipocalin mutein SEQ ID NO: 8 were tested as a negative control. Cells were subsequently washed and analyzed using iQue Flow cytometer (Intellicyte Screener). Mean geometric fluorescent signals were plotted and fitted with Graphpad software using nonlinear regression (shared bottom, four parameters, variable slope).
Target-specific binding of hexavalent trimeric proteins to human 4-1BB-, OX40- or PD-L1-expressing cells was assessed by flow cytometry as described in Example 5, using CHO cells stably transfected with human 4-1BB, human OX40 or human PD-L1 (Flp-In system; Life Technologies).

human PD-L1 on CHO cells = target: T2, human PD-L1 on CHO cells (human, UniProt Q9NZQ7 19-290); assay: flow cytometry, Flp-In-CHO::huPD-L1 cells
T2 construct: whole, on cells; Stably transfected CHO cells; also called Flp-In-CHO::huPD-L1; human PD-L1-expressing CHO cells
T2 sequence (Q9NZQ7 19-290): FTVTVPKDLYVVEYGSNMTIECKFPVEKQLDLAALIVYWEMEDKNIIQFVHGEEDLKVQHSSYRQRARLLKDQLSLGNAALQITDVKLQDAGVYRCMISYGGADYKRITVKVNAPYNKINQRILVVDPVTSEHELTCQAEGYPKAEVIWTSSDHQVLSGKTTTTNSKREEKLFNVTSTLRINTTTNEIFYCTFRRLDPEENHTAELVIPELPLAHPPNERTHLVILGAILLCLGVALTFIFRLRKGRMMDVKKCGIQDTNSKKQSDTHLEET

hu4-1BB-Fc (R&D Systems) = target: T3, hu4-1BB-Fc (R&D Systems) (human, UniProt Q07011 24-186); assay: SPR, hu4-1BB-Fc captured
T3 construct: Bought; also called human 4-1BB; not shown: human IgG Fc of the bought fusion

T1 sequence (Q07011 24-255): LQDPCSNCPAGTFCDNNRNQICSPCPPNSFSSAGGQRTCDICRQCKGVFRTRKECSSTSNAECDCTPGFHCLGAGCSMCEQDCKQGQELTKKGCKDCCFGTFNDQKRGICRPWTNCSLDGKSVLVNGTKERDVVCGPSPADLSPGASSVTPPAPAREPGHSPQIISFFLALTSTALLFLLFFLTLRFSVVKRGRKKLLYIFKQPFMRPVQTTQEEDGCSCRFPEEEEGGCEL

Row | Binder | EC50 (human 4-1BB on cells) [nM] | EC50 (human PD-L1 on CHO cells) [nM] | binding result (hu4-1BB-Fc (R&D Systems))
1 | bispecific hexavalent trimeric protein SEQ ID NO: 167 (designed binder) QVQLQESGPGLVKPSETLSITCTVSGFSLSNYDISWIRQPPGKGLEWLGVIWTGGATNYNPALKSRLTISRDNSKNQVSLKMSSVTAADTAVYYCVRDSNYRYDEPFTYWGQGTLVTVSSGGGGSGGGGSGGGGSGGGGSEIVLTQSPDTLSVTPKEKVTLTCRASQSIGTNIHWFQQKPGQSPKLLIKYASESISGVPSRFSGSGSGTDFTLTINSVEAEDAATYYCQQSNSWPYTFGQGTKLEIKGGGGSGGGGSGGGGSGVRLWATRQAMLGQVHEVPEGWLIFVAEQEELYVRVQNGFRKVQLEARTPLGGGGSGGGGSGGGGSQDSTSDLIPAPPLSKVPLQQNFQDNQFHGKWYVVGQAGNIRLREDKDPIKMMATIYELKEDKSYDVTMVKFDDKKCMYDIWTFVPGSQPGEFTLGKIKSFPGHTSSLVRVVSTNYNQHAMVFFKFVFQNREEFYITLYGRTKELTSELKENFIRFSKSLGLPENHIVFPVPIDQCIDGGGSGGAPEQKLISEEDLGSHHHHHHHHHH | 4.71 | 1.23 | –
2 | multimeric protein SEQ ID NO: 45 (designed binder) GVRLWATRQAMLGQVHEVPEGWLIFVAEQEELYVRVQNGFRKVQLEARTPLGGGGSGGGGSGGGGSGGGGSGGGGSQDSTSDLIPAPPLSKVPLQQNFQDNQFHGKWYVVGQAGNIRLREDKDPIKMMATIYELKEDKSYDVTMVKFDDKKCMYDIWTFVPGSQPGEFTLGKIKSFPGHTSSLVRVVSTNYNQHAMVFFKFVFQNREEFYITLYGRTKELTSELKENFIRFSKSLGLPENHIVFPVPIDQCIDGGGSGGAPEQKLISEEDLGSHHHHHHHHHH | – | – | binds
